# Experimental data as given in publication PMC6895277.
# pKd: −log10 of the molar value. Where two headings read alike, the source gives them in different places.
# Legend:
# [1] = molecular target: T1, IFNγ (human) (UniProt P01579); assay: SPR; conditions: biotin-dT at T53, SPR: 1x PBS (1 mM KH2PO4, 3 mM Na2HPO4, 155 mM NaCl; 205 mM NaCl for IFNγ), pH 7.4, 0.05% Nonidet P-40, 25°C, EMSA: 1x PBS, 0.05% NP-40, 25°C, 25 nM DNA, 50 nM …
# T1 sequence: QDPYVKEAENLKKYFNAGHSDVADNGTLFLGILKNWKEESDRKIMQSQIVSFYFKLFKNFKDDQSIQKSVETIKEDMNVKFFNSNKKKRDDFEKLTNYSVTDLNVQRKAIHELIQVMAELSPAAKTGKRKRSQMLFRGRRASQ
# [2] = molecular target: T1, IFNγ (human); conditions: N28 and N39 = Ds; biotin-dT at T53; SPR: 1x PBS (1 mM KH2PO4, 3 mM Na2HPO4, 155 mM NaCl; 205 mM NaCl for IFNγ), pH 7.4, 0.05% Nonidet P-40, 25°C; EMSA: 1x PBS, 0.05% NP-40, 25°C, 25 nM DNA, 50 nM …; cited from earlier work
# [3] = tested on: T2, VEGF165 (human), P15692-4; assay: SPR; conditions: biotin-dT at T54, SPR: 1x PBS (1 mM KH2PO4, 3 mM Na2HPO4, 155 mM NaCl; 205 mM NaCl for IFNγ), pH 7.4, 0.05% Nonidet P-40, 25°C, EMSA: 1x PBS, 0.05% NP-40, 25°C, 25 nM DNA, 50 nM …
# T2 sequence: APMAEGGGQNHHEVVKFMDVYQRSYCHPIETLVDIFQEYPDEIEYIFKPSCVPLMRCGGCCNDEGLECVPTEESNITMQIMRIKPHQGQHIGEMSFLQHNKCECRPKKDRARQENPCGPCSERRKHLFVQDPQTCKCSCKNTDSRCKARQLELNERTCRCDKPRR
# [4] = tested on: T2, VEGF165 (human), P15692-4; conditions: N25 and N34 = Ds (7-(2-thienyl)imidazo[4,5-b]pyridine); biotin-dT at T54; SPR: 1x PBS (1 mM KH2PO4, 3 mM Na2HPO4, 155 mM NaCl; 205 mM NaCl for IFNγ), pH 7.4, 0.05% Nonidet P-40, 25°C; EMSA: 1x PBS, 0.05% NP-40, 25°C, 25 nM DNA, 50 nM …; cited from earlier work
sequence,measurement,setting,value
CCCGCCCGGGTCCGCGAAGCGGTAGGTATGGGCTAGGCAGCTGGCGGGCGCGTAGCG [I-Apt4 (AA)],pKd,[1],7.80
CCCGCCCGGGTCCGCGAAGCGGTAGGTNTGGGCTAGGCNGCTGGCGGGCGCGTAGCG [I-Apt1 (DD)],pKd,[1]; N28 and N39 = Ds,10.89
same,pKd,[2],10.48
GCGGTAAGCCGCGTCCGAAGGGGCATGCGGCGAACCCGAATGGGTCCGCCGCGTAGCG [V-Apt4 (AA)],pKd,[3],9.80
GCGGTAAGCCGCGTCCGAAGGGGCATGCGGCGANCCCGAATGGGTCCGCCGCGTAGCG [V-Apt2 (AD)],pKd,[3]; N34 = Ds,11.70
GCGGTAAGCCGCGTCCGAAGGGGCNTGCGGCGAACCCGAATGGGTCCGCCGCGTAGCG [V-Apt3 (DA)],pKd,[3]; N25 = Ds,10.24
GCGGTAAGCCGCGTCCGAAGGGGCNTGCGGCGANCCCGAATGGGTCCGCCGCGTAGCG [V-Apt1 (DD)],pKd,"[3]; N25 and N34 = Ds (7-(2-thienyl)imidazo[4,5-b]pyridine)",11.80
same,pKd,[4],12.00
